Data taken from patent US20250215411A1, “FUSION PROTEINS AND USES THEREOF” (priority 2022, published 2025).

B1: RGD-SAP: RGD-4C (ACDCRGDCFCG) fused via GGSSRSS linker to N-terminus of saporin, C-terminal VDK and 6xHis tag; SEQ ID NO: 6 (protein)
chain: ACDCRGDCFCGGGSSRSSVTSITLDLVNPTAGQYSSFVDKIRNNVKDPNLKYGGTDIAVIGPPSKEKFLRINFQSSRGTVSLGLKRDNLYVVAYLAMDNTNVNRAYYFKSEITSAELTALFPEATTANQKALEYTEDYQSIEKNAQITQGDKSRKELGLGIDLLLTFMEAVNKKARVVKNEARFLLIAIQMTAEVARFRYIQNLVTKNFPNKFDSDNKVIQFEVSWRKISTAIYGDAKNGVFNKDYDFGFGKVRQVKDLQMGLLMYLGKPKVDKHHHHHH

Experiments:
αvβ3 integrin = αvβ3 integrin (Homo sapiens, UniProt P05106+P06756); settings: cited from earlier work
αvβ5 integrin = αvβ5 integrin (Homo sapiens, UniProt P06756+P18084); settings: cited from earlier work
α5β1 integrin = α5β1 integrin (Homo sapiens, UniProt P05556+P08648); settings: cited from earlier work
αvβ6 integrin = αvβ6 integrin (Homo sapiens, UniProt P06756+P18564); settings: cited from earlier work
[1] = test system: 5637, RT112, RT4, U87, MDA-MB-468 cancer cell lines; experiment: Cell viability assay (MTT), cancer cell lines; assay type: cell-based, human
Protocol: (§1) Cultured cell lines (5×10^3 cells/well) were seeded in 96 wells plates and incubated for 72 h with various amounts of RGD-SAP or CYS-SAP at 37° C., 5% CO2. Cell viability was then quantified by 3-(4,5-dimethylthiazol-2-yl)-2,5-diphenyltetrazolium bromide staining (MTT) (working solution 0.5 μg/ml). After 1 h of incubation, the supernatants were removed, the formazan crystals were dissolved with dimethyl sulfoxide and the absorbance at 570 nm was measured using a microtiter plate reader. Competitive experiments were performed as described above using 100 nM of RGD-SAP or 1000 nM of CYS-SAP in the presence of 5000 nM of ACDCRGDCFCG peptide for 48 and 72 hours.
as §1, with “NGR-SAP, RGD-SAP, CgA-SAP, CYS-SAP, ATF-SAP” for “RGD-SAP”, “seed SAP” for “CYS-SAP”, “reader.” for “reader. Competitive experiments were performed as described above using 100 nM of RGD-SAP or 1000 nM of CYS-SAP in the presence of 5000 nM of ACDCRGDCFCG peptide for 48 and 72 hours.”

normal fibroblasts = experiment: Cell viability assay (MTT), normal fibroblasts; assay type: cell-based; settings: 72 h
Protocol: as §1
as §1, with “NGR-SAP, RGD-SAP, CgA-SAP, CYS-SAP, ATF-SAP” for “RGD-SAP”, “seed SAP” for “CYS-SAP”, “reader.” for “reader. Competitive experiments were performed as described above using 100 nM of RGD-SAP or 1000 nM of CYS-SAP in the presence of 5000 nM of ACDCRGDCFCG peptide for 48 and 72 hours.”

[2] = test system: 5637 bladder cancer cells; experiment: MTT competition experiment with free RGD-4C peptide; assay type: cell-based, human; settings: 0.1 μM RGD-SAP or 1 μM CYS-SAP, 5 μM peptide, 48 and 72 h
Protocol: as §1

[3] = test system: caspase 3 in 5637 and MDA-MB-468 cells; experiment: Caspase 3 activation (western blot); assay type: cell-based, human; settings: 30 nM, 48 and 72 h
Protocol: Cells were washed twice with cold PBS, collected by scraping and centrifuged 5 min at 300 g. Cells were lysed for 30 min on ice in ice-cold buffer (50 mM Tris-HCl, pH 7.5, containing 150 mM NaCl, 2 mM NaF, 1 mM EDTA, 1 mM EGTA, 1 mM Na3VO4, 1 mM PMSF, 75 mU/ml aprotinin (Sigma-Aldrich), 1% TritonX-100 and a proteinase inhibitor Cocktail® (Sigma-Aldrich). Cell lysates were centrifuged at 10000×g at 4° C. for 10 min and the supernatants were recovered and quantified for total protein content. Equal amounts of cell protein extracts were separated by SDS-PAGE under reducing conditions unless stated otherwise. For western blot analysis, proteins were transferred onto a nitrocellulose membrane, incubated with 5% non-fat powdered milk in TBS-T (0.5% Tween-20) for 1 hour and then with the following antibodies: anti-saporin anti-serum (rabbit, 1:5000), anti-caspase 3 (rabbit, 1:2000, clone E87, Abcam), anti-beta actin (mouse, 1:10000, clone AC-15, Sigma-Aldrich). The antibody binding was detected using a secondary horseradish peroxidase conjugated antibodies (donkey anti-mouse/rabbit IgG HRP-linked, GE Healthcare) and an enhanced chemiluminescent (ECL, Merck Millipore).
To induce caspase 3 activation, cells were treated with 30 nM RGD-SAP or 2 mM DTT for 48 and 72 hours.

subcutaneous MB49 tumors = experiment: Subcutaneous syngeneic bladder cancer mouse model; assay type: in vivo, C57BL/6 mice
Source text: (§2) Studies on animal models were approved by the Institutional Animal Care and Use Committee (Institutional Animal Care and Use Committee, IACUC) and performed according to the prescribed guidelines. C57BL/6 female mice (7 weeks old, Charles River, Calco, Italy) were challenged with subcutaneous injection in the left flank of 3-5×10^5 MB49 living cells; 5 days later, 4-6 mice/group were intravenously administered with various doses of RGD-SAP or CYS-SAP diluted in sodium chloride (0.9%, i.v., 200 μl). Tumor growth was estimated by calculating the volume using the formula r1×r2×r3×4/3 π, where r1 and r2 are the longitudinal and lateral radii, and r3 is the thickness of tumors protruding from the surface of normal skin. Animals were euthanized when tumors reached 10 mm in diameter, became ulcerated or a 15% animal body weight loss was measured.

[4] = Toxicity in the subcutaneous model (body weight, injection site, serum biochemical parameters); assay type: in vivo, C57BL/6 mice
Source text: as §2
Blood samples were collected from the retroorbital plexus of anesthetized mice using 4% isoflurane at the end of each experiment or before animal sacrifice. Blood samples were left at room temperature for at least 30 min before being processed and then centrifuged (800×g, 10 min) for serum separation. Serum albumin, aspartate transaminase, alanine transaminase, creatinine and urea were determined by using an automated analyzer (ScilVet ABC plus and Idexx Procyte analyzers) according to the manufacturers' instructions. Standard controls were run before each determination.

Chain of αvβ5 integrin (P06756 31-1048): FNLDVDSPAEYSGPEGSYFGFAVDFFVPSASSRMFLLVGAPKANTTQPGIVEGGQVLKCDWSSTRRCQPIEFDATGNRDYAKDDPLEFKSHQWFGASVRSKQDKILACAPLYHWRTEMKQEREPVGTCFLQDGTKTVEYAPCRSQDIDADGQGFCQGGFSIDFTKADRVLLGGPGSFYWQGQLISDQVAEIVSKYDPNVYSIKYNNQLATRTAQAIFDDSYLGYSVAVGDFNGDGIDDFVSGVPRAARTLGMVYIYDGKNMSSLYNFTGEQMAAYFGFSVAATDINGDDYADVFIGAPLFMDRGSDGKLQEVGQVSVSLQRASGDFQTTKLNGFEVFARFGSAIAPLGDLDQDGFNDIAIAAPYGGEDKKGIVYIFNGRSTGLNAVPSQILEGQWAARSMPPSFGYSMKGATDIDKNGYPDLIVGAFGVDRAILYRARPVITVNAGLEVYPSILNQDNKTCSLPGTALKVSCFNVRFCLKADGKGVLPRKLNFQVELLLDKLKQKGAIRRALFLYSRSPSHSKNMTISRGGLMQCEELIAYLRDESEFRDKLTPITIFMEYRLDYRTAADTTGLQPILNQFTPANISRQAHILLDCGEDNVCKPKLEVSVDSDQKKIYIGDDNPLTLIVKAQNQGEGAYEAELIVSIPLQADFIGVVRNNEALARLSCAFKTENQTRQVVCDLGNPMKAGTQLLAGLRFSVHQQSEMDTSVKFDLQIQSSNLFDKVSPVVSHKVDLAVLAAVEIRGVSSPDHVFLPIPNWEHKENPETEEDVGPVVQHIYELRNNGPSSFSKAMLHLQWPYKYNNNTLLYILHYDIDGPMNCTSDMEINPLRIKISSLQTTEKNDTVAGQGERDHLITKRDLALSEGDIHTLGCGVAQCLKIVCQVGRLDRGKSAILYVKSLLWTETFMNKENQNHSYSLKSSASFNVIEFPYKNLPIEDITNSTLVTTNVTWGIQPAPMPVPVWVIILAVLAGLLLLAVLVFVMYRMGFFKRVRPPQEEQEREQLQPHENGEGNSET
Chain of αvβ5 integrin (P18084 24-799): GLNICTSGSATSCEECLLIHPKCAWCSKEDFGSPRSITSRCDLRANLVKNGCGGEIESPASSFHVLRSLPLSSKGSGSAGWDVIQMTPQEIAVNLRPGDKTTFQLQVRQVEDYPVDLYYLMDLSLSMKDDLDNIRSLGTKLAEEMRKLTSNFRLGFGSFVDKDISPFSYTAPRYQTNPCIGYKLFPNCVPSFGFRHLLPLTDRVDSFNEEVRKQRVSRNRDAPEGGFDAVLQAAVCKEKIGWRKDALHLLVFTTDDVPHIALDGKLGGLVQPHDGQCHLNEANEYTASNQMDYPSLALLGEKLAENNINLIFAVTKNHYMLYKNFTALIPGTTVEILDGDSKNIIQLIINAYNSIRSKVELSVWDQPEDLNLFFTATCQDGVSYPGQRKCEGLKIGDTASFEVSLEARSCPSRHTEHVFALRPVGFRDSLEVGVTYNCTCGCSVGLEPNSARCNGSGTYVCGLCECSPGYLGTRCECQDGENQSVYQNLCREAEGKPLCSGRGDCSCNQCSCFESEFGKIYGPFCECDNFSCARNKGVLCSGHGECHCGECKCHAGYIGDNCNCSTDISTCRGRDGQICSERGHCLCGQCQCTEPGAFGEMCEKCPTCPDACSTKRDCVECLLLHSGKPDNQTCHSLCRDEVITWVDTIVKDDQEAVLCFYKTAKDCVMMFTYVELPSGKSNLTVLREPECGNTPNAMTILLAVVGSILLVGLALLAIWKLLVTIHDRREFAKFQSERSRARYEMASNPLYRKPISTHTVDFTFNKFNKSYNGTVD
Chain of αvβ3 integrin (P06756 31-1048): as the sequence (P06756 31-1048) above
Chain of αvβ3 integrin (P05106 27-788): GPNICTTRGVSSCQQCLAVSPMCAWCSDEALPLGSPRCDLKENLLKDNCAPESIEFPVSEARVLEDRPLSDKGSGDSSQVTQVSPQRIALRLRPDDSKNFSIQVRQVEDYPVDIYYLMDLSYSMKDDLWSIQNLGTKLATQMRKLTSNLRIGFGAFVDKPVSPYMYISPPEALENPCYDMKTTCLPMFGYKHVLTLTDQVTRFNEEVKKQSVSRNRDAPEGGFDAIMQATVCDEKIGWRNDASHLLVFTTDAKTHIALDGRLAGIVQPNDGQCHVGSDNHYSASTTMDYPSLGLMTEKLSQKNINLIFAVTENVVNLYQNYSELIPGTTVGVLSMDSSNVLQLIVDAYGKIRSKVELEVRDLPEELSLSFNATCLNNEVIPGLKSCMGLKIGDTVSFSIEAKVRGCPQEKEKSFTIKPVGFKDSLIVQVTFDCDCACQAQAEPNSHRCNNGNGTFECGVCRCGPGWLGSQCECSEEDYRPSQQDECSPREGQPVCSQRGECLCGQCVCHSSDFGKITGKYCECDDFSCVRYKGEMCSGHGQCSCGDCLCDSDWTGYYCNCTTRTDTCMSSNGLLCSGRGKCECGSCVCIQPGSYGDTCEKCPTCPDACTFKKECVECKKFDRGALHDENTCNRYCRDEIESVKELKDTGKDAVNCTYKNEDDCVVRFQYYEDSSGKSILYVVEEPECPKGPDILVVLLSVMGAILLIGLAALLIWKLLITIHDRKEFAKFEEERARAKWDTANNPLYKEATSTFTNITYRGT
Chain of αvβ6 integrin (P06756 31-1048): as the sequence (P06756 31-1048) above
Chain of αvβ6 integrin (P18564 22-788): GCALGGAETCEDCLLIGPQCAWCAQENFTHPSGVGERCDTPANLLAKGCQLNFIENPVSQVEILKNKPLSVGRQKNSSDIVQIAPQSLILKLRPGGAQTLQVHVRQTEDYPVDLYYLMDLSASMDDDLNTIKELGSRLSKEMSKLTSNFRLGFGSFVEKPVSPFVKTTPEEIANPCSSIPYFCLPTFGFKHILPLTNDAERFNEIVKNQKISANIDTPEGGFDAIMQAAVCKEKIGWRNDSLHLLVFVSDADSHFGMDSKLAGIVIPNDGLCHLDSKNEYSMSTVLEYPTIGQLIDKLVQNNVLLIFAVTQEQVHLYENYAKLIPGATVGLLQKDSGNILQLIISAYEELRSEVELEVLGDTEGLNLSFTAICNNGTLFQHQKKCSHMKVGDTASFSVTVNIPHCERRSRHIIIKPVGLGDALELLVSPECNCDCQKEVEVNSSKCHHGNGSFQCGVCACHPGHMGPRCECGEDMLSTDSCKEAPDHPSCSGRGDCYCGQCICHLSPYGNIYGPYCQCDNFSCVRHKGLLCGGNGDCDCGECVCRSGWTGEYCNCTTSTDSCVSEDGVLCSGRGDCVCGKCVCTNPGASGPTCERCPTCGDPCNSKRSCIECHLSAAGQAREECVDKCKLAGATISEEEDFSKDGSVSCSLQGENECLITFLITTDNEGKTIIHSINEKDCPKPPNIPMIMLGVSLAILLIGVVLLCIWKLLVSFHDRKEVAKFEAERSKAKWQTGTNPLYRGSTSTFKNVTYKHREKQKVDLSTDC

Molecule	affinity value (αvβ3 integrin) [nM]	affinity value (αvβ5 integrin) [nM]	affinity value (α5β1 integrin) [nM]	affinity value (αvβ6 integrin) [nM]	cytotoxic effect compared to CYS-SAP ([1]; MTT, 72 h, all cancer cells)	sensitivity of U87 cells compared with the other cell lines ([1]; U87, highest amount of αvβ3)	cytotoxic effect compared to CYS-SAP (normal fibroblasts)	effect of excess free RGD-4C peptide on cytotoxic activity [2]	caspase 3 activation [3]	effect on tumor growth (subcutaneous MB49 tumors; 0.25 mg/kg i.v., days 5, 10, 15)	effect on tumor growth (subcutaneous MB49 tumors; 0.5 mg/kg i.v., days 5, 10, 15)	effect on tumor growth (subcutaneous MB49 tumors; 0.75 mg/kg i.v., days 5, 10, 15)	survival, hazard ratio versus vehicle (subcutaneous MB49 tumors; 0.75 mg/kg, Mantel-Cox log-rank, 95% CI 1.19-23.10)	complete tumor eradication (subcutaneous MB49 tumors; 1 mg/kg i.v., end of experiment day 19, n=4)	effect on tumor growth (subcutaneous MB49 tumors; 1 mg/kg i.v., three times every five days from day 5)	serum AST and CHE versus vehicle ([4]; 1 mg/kg)	body weight ([4]; 1 mg/kg i.v., day 19)	injection site reaction ([4]; 1 mg/kg i.v., tails)	systemic toxicity (liver and kidney serum parameters) ([4]; 0.25-1 mg/kg)	body weight ([4]; 0.75 and 0.5 mg/kg i.v., days 5, 10, 15)
RGD-4C: ACDCRGDCFCG peptide (SEQ ID NO: 2), an αv-integrin ligand	8.3	46	244	380	–	–	–	–	–	–	–	–	–	–	–	–	–	–	–	–
B1	–	–	–	–	stronger cytotoxic effect	most sensitive	but not with normal fibroblasts	significantly decreased the activity	caspase 3 activation was detectable as cleaved form	but not 0.25 mg/kg	significant delay of tumor growth	significant delay of tumor growth	5.25	1 tumor undetectable and complete eradication in one mouse	marked reduction of the tumor volume in all mice	significantly higher values	loss of body weight	severe necrosis in the tails	dose dependent and apparent only with the highest dose used	without causing loss of body weight
